Assay results from publication PMC5391958, “New function of aldoxime dehydratase: Redox catalysis and the formation of an expected product” (PLoS ONE, 2017).

Key:
Experiment in all cases: purified protein
Format in all cases: biochemical, Pseudomonas chlororaphis
[1] = test system: T1, CCn1c(=NN=c2sc3cc(S(=O)(=O)O)ccc3n2CC)sc2cc(S(=O)(=O)O)ccc21; conditions: apparent
T1 construct: recombinant from pET-oxdA (mutants in pET-24a(+)), E. coli BL21-CodonPlus(DE3)-RIL, purified heme enzyme; Mr 40,127; no tag mentioned

COc1ccccc1O = test system: T2, COc1ccccc1O; conditions: apparent
T2 construct: recombinant from pET-oxdA (mutants in pET-24a(+)), E. coli BL21-CodonPlus(DE3)-RIL, purified heme enzyme; Mr 40,127; no tag mentioned

purified protein [2] = substrate: COc1ccccc1O; conditions: apparent, 100 mM H2O2, 100 mM potassium phosphate pH 7.0, 30°C
purified protein [3] = substrate: CCn1c(=NN=c2sc3cc(S(=O)(=O)O)ccc3n2CC)sc2cc(S(=O)(=O)O)ccc21; conditions: apparent, 25 mM H2O2, 100 mM potassium phosphate pH 7.0, 30°C
[4] = 10 mM H2O2, 100 mM potassium phosphate pH 7.0, 30°C
[5] = 25 mM H2O2, 100 mM potassium phosphate pH 7.0, 30°C
[6] = 100 mM H2O2, 100 mM potassium phosphate pH 7.0, 30°C

OxdA(WT); aldoxime dehydratase (OxdA) (Pseudomonas chlororaphis subsp. chlororaphis; H320A)
Km [1, 4]: 210 ± 30 µM
Vmax [1, 4]: 1.3 µmol/min/mg
kcat [1, 4]: 0.85 ± 0.07 s⁻¹
kcat/Km [1, 4]: 4000 M⁻¹ s⁻¹
Km (COc1ccccc1O; [5]): 840 ± 170 µM
Vmax (COc1ccccc1O; [5]): 1.2 µmol/min/mg
kcat (COc1ccccc1O; [5]): 0.81 ± 0.05 s⁻¹
kcat/Km (COc1ccccc1O; [5]): 970 M⁻¹ s⁻¹

OxdA(WT); aldoxime dehydratase (OxdA) (Pseudomonas chlororaphis subsp. chlororaphis; H320D)
Km [1, 5]: 120 ± 20 µM
Vmax [1, 5]: 33 µmol/min/mg
kcat [1, 5]: 22 ± 1 s⁻¹
kcat/Km [1, 5]: 190000 M⁻¹ s⁻¹
Km (COc1ccccc1O; [6]): 1000 ± 400 µM
Vmax (COc1ccccc1O; [6]): 50 µmol/min/mg
kcat (COc1ccccc1O; [6]): 33 ± 3 s⁻¹
kcat/Km (COc1ccccc1O; [6]): 32000 M⁻¹ s⁻¹

B1: OxdA(WT); aldoxime dehydratase (OxdA) (Pseudomonas chlororaphis subsp. chlororaphis) (protein)
chain: MESAIDTHLKCPRTLSRRVPEEYQPPFPMWVARADEQLQQVVMGYLGVQYRGEAQREAALQAMRHIVSSFSLPDGPQTHDLTHHTDSSGFDNLMVVGYWKDPAAHCRWLRSAEVNDWWTSQDRLGEGLGYFREISAPRAEQFETLYAFQDNLPGVGAVMDSTSGEIEEHGYWGSMRDRFPISQTDWMKPTNELQVVAGDPAKGGRVVIMGHDNIALIRSGQDWADAEAEERSLYLDEILPTLQDGMDFLRDNGQPLGCYSNRFVRNIDLDGNFLDVSYNIGHWRSLEKLERWAESHPTHLRIFVTFFRVAAGLKKLRLYHEVSVSDAKSQVFEYINCHPHTGMLRDAVVAPT
notes: recombinant from pET-oxdA (mutants in pET-24a(+)), E. coli BL21-CodonPlus(DE3)-RIL, purified heme enzyme; Mr 40,127; no tag mentioned
Km (purified protein [2]): 26 ± 10 µM
Vmax (purified protein [2]): 20 µmol/min/mg
kcat (purified protein [2]): 14 ± 1 s⁻¹
kcat/Km (purified protein [2]): 530000 M⁻¹ s⁻¹
Km (purified protein [3]): 210 ± 40 µM
Vmax (purified protein [3]): 3.4 µmol/min/mg
kcat (purified protein [3]): 2.3 ± 0.1 s⁻¹
kcat/Km (purified protein [3]): 11000 M⁻¹ s⁻¹
